According to patent US20190263889A1:
Several values for one entry are separate records, joined by “and”; a condition that tells them apart may be missing. Identical values can stand only once.

Columns and labels:
[1] = molecular target: wild type human CTLA-4Fc fusion protein (abatacept) (human); assay: ELISA; binder 100 ng/ml on coated target
[2] = molecular target: CTLA-4Fc mutant protein M4 (human (murine residues substituted)); assay: ELISA; binder 100 ng/ml on coated target
[3] = molecular target: CTLA-4Fc mutant protein M5 (human (murine residues substituted)); assay: ELISA; binder 100 ng/ml on coated target
[4] = molecular target: CTLA-4Fc mutant protein M9 (human (murine residues substituted)); assay: ELISA; binder 100 ng/ml on coated target
[5] = molecular target: CTLA-4Fc mutant protein M8 (human (murine residues substituted)); assay: ELISA; binder 100 ng/ml on coated target
[6] = molecular target: CTLA-4Fc mutant protein M11 (human (murine residues substituted)); assay: ELISA; binder 100 ng/ml on coated target
[7] = molecular target: CTLA-4Fc mutant protein M2 (human (murine residues substituted)); assay: ELISA; binder 100 ng/ml on coated target
[8] = molecular target: CTLA-4Fc mutant protein M6 (human (murine residues substituted)); assay: ELISA; binder 100 ng/ml on coated target
[9] = molecular target: CTLA-4Fc mutant protein M10 (human (murine residues substituted)); assay: ELISA; binder 100 ng/ml on coated target
[10] = molecular target: CTLA-4Fc mutant protein M7 (human (murine residues substituted)); assay: ELISA; binder 100 ng/ml on coated target
[11] = molecular target: CTLA-4Fc mutant protein M3 (human (murine residues substituted)); assay: ELISA; binder 100 ng/ml on coated target
[12] = molecular target: CTLA-4Fc mutant protein M1 (human (murine residues substituted)); assay: ELISA; binder 100 ng/ml on coated target
[13] = molecular target: wild type human CTLA-4Fc fusion protein (abatacept) (human); assay: ELISA; binder 1 ug/ml on coated target
[14] = molecular target: CTLA-4Fc mutant protein M4 (human (murine residues substituted)); assay: ELISA; binder 1 ug/ml on coated target
[15] = molecular target: CTLA-4Fc mutant protein M5 (human (murine residues substituted)); assay: ELISA; binder 1 ug/ml on coated target
[16] = molecular target: CTLA-4Fc mutant protein M9 (human (murine residues substituted)); assay: ELISA; binder 1 ug/ml on coated target
[17] = molecular target: CTLA-4Fc mutant protein M8 (human (murine residues substituted)); assay: ELISA; binder 1 ug/ml on coated target
[18] = molecular target: CTLA-4Fc mutant protein M11 (human (murine residues substituted)); assay: ELISA; binder 1 ug/ml on coated target
[19] = molecular target: CTLA-4Fc mutant protein M2 (human (murine residues substituted)); assay: ELISA; binder 1 ug/ml on coated target
[20] = molecular target: CTLA-4Fc mutant protein M6 (human (murine residues substituted)); assay: ELISA; binder 1 ug/ml on coated target
[21] = molecular target: CTLA-4Fc mutant protein M10 (human (murine residues substituted)); assay: ELISA; binder 1 ug/ml on coated target
[22] = molecular target: CTLA-4Fc mutant protein M7 (human (murine residues substituted)); assay: ELISA; binder 1 ug/ml on coated target
[23] = molecular target: CTLA-4Fc mutant protein M3 (human (murine residues substituted)); assay: ELISA; binder 1 ug/ml on coated target
[24] = molecular target: CTLA-4Fc mutant protein M1 (human (murine residues substituted)); assay: ELISA; binder 1 ug/ml on coated target
[25] = molecular target: wild type human CTLA-4Fc fusion protein (abatacept) (human); assay: ELISA; binder 100 ng/ml on coated target; remark: listed apart in the source
[26] = molecular target: CTLA-4Fc mutant protein M4 (human (murine residues substituted)); assay: ELISA; binder 100 ng/ml on coated target; remark: listed apart in the source
[27] = molecular target: CTLA-4Fc mutant protein M5 (human (murine residues substituted)); assay: ELISA; binder 100 ng/ml on coated target; remark: listed apart in the source
[28] = molecular target: human IgG1-Fc control (human) [IgG part: P01857]; assay: ELISA; binder 100 ng/ml on coated target
[29] = molecular target: CTLA-4Fc mutant protein M9 (human (murine residues substituted)); assay: ELISA; binder 100 ng/ml on coated target; remark: listed apart in the source
[30] = molecular target: CTLA-4Fc mutant protein M8 (human (murine residues substituted)); assay: ELISA; binder 100 ng/ml on coated target; remark: listed apart in the source
[31] = molecular target: CTLA-4Fc mutant protein M11 (human (murine residues substituted)); assay: ELISA; binder 100 ng/ml on coated target; remark: listed apart in the source
[32] = molecular target: CTLA-4Fc mutant protein M2 (human (murine residues substituted)); assay: ELISA; binder 100 ng/ml on coated target; remark: listed apart in the source
mouse CTLA-4-Fc (mouse) = mouse CTLA-4-Fc (mouse) (UniProt P09793); assay: ELISA; binder 100 ng/ml on coated target
[33] = molecular target: CTLA-4Fc mutant protein M6 (human (murine residues substituted)); assay: ELISA; binder 100 ng/ml on coated target; remark: listed apart in the source
[34] = molecular target: CTLA-4Fc mutant protein M10 (human (murine residues substituted)); assay: ELISA; binder 100 ng/ml on coated target; remark: listed apart in the source
[35] = molecular target: CTLA-4Fc mutant protein M7 (human (murine residues substituted)); assay: ELISA; binder 100 ng/ml on coated target; remark: listed apart in the source
[36] = molecular target: CTLA-4Fc mutant protein M3 (human (murine residues substituted)); assay: ELISA; binder 100 ng/ml on coated target; remark: listed apart in the source
[37] = molecular target: CTLA-4Fc mutant protein M1 (human (murine residues substituted)); assay: ELISA; binder 100 ng/ml on coated target; remark: listed apart in the source
[38] = molecular target: CTLA-4Fc mutant protein M4 (human (murine residues substituted)); assay: ELISA; binder 0 (blank) on coated target
[39] = molecular target: CTLA-4Fc mutant protein M11 (human (murine residues substituted)); assay: ELISA; binder 0 (blank) on coated target
[40] = molecular target: CTLA-4Fc mutant protein M6 (human (murine residues substituted)); assay: ELISA; binder 0 (blank) on coated target
[41] = molecular target: CTLA-4Fc mutant protein M7 (human (murine residues substituted)); assay: ELISA; binder 0 (blank) on coated target
[42] = molecular target: CTLA-4Fc mutant protein M3 (human (murine residues substituted)); assay: ELISA; binder 0 (blank) on coated target

Sequence of CTLA-4Fc mutant protein M7 (human (murine residues substituted)) (chain, as listed by the source mutant): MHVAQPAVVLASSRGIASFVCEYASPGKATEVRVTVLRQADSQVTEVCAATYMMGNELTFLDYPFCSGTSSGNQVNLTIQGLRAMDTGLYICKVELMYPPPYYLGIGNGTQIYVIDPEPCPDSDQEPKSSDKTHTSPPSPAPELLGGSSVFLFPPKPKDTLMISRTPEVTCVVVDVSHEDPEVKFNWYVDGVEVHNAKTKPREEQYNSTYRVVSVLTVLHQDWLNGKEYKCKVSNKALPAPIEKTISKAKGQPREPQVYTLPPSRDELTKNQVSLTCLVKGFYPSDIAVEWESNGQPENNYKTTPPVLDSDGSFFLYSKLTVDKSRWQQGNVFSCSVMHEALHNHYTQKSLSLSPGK
Sequence of CTLA-4Fc mutant protein M9 (human (murine residues substituted)) (chain, as listed by the source mutant): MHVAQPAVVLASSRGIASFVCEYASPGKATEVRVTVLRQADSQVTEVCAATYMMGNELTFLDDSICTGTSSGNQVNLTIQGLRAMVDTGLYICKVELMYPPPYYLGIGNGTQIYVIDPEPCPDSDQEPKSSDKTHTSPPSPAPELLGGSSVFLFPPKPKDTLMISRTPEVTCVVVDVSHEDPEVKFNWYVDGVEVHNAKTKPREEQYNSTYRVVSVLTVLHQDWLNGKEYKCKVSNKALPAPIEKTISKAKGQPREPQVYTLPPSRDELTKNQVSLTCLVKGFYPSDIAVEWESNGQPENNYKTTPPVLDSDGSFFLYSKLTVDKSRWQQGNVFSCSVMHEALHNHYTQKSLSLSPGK
Sequence of CTLA-4Fc mutant protein M5 (human (murine residues substituted)) (chain, as listed by the source mutant): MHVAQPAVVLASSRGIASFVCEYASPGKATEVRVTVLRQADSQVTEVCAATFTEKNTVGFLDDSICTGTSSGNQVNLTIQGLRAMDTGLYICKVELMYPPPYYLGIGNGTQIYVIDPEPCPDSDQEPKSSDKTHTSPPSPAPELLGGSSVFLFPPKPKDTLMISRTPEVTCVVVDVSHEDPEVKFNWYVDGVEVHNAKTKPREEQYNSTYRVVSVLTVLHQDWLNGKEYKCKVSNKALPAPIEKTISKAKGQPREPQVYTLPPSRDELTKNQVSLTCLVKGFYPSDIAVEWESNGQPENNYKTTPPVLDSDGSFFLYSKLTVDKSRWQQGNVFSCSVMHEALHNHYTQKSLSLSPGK
Sequence of CTLA-4Fc mutant protein M3 (human (murine residues substituted)) (chain, as listed by the source mutant): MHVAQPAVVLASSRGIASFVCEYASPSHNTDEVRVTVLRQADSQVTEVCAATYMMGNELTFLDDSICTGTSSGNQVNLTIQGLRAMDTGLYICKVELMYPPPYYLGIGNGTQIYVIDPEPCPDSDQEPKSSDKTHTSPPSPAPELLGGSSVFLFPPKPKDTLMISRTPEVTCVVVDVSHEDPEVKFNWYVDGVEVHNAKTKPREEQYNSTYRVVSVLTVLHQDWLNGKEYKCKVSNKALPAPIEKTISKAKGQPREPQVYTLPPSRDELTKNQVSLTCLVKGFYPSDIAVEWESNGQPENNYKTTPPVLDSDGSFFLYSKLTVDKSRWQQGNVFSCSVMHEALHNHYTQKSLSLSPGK
Sequence of CTLA-4Fc mutant protein M4 (human (murine residues substituted)) (chain, as listed by the source mutant): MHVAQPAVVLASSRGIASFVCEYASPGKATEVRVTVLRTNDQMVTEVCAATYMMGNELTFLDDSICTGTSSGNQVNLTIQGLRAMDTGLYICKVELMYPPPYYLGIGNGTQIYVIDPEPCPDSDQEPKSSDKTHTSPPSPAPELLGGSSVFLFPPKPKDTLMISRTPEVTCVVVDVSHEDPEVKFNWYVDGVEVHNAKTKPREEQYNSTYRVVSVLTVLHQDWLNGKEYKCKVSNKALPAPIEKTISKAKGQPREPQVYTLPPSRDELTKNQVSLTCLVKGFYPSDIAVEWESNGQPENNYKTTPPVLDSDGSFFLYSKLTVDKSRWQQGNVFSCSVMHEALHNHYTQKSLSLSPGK
Sequence of wild type human CTLA-4Fc fusion protein (abatacept) (human) (chain, as listed by the source limits assumed): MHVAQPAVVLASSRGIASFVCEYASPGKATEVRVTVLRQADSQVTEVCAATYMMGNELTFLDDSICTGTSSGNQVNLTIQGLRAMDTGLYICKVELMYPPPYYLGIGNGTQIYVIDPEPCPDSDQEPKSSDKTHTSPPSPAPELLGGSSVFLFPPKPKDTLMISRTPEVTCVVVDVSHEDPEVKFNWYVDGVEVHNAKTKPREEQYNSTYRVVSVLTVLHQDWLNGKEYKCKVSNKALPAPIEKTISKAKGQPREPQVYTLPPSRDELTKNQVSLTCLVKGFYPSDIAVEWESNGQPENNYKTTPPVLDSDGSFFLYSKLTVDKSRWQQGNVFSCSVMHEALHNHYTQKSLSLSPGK
Sequence of CTLA-4Fc mutant protein M6 (human (murine residues substituted)) (chain, as listed by the source mutant): as the sequence (chain, as listed by the source limits assumed) above, with A50T counted along it
Sequence of CTLA-4Fc mutant protein M10 (human (murine residues substituted)) (chain, as listed by the source mutant): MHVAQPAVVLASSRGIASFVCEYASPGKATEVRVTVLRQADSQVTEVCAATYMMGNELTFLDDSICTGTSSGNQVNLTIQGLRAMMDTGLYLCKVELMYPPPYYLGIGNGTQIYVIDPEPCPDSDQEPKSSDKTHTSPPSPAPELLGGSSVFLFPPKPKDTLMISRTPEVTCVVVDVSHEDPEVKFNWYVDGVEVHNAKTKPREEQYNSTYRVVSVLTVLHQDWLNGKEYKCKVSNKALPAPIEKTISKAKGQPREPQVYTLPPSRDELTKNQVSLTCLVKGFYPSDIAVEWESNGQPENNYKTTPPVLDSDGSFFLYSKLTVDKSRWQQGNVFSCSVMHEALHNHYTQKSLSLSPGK
Sequence of CTLA-4Fc mutant protein M2 (human (murine residues substituted)) (chain, as listed by the source mutant): as the sequence (chain, as listed by the source limits assumed) above, with R14H, I16L, V20P counted along it
Sequence of CTLA-4Fc mutant protein M1 (human (murine residues substituted)) (chain, as listed by the source mutant): as the sequence (chain, as listed by the source limits assumed) above, with M1I, H2Q, A4T, A7S counted along it
Sequence of CTLA-4Fc mutant protein M8 (human (murine residues substituted)) (chain, as listed by the source mutant): as the sequence (chain, as listed by the source limits assumed) above, with S70F, S71N, G72E, N73S, Q74R counted along it
Sequence of CTLA-4Fc mutant protein M11 (human (murine residues substituted)) (chain, as listed by the source mutant): as the sequence (chain, as listed by the source limits assumed) above, with Y103F, L104V, I106M counted along it
Sequence of mouse CTLA-4-Fc (mouse) (P09793 36-161 limits assumed): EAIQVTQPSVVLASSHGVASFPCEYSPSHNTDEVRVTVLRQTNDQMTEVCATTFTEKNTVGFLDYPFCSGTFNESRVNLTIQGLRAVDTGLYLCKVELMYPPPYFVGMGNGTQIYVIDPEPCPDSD

## chimeric L3D10 anti-human CTLA-4 antibody
[1]
  OD450: 3.05 OD450 and 3.02 OD450
[2]
  OD450: 2.14 OD450 and 1.41 OD450
[3]
  OD450: 2.84 OD450 and 2.99 OD450
[4]
  OD450: 0.295 OD450 and 0.304 OD450
[5]
  OD450: 2.91 OD450 and 2.84 OD450
[6]
  OD450: 0.635 OD450 and 0.759 OD450
[7]
  OD450: 1.38 OD450 and 1.16 OD450
[8]
  OD450: 2.7 OD450 and 2.77 OD450
[9]
  OD450: 0.215 OD450 and 0.216 OD450
[10]
  OD450: 2.5 OD450 and 2.48 OD450
[11]
  OD450: 2.32 OD450 and 2.35 OD450
[12]
  OD450: 3.25 OD450 and 3.24 OD450
[13]
  OD450: 3.37 OD450 and 3.11 OD450
[14]
  OD450: 2.65 OD450 and 2.66 OD450
[15]
  OD450: 3.02 OD450 and 3.03 OD450
[16]
  OD450: 0.916 OD450
[17]
  OD450: 3.14 OD450 and 3.03 OD450
[18]
  OD450: 2.84 OD450 and 2.98 OD450
[19]
  OD450: 2.39 OD450 and 2.62 OD450
[20]
  OD450: 3.09 OD450 and 3.07 OD450
[21]
  OD450: 0.804 OD450 and 0.868 OD450
[22]
  OD450: 3.15 OD450 and 2.99 OD450
[23]
  OD450: 3.18 OD450 and 3.12 OD450
[24]
  OD450: 3.27 OD450 and 2.97 OD450
[25]
  OD450: 3.32 OD450 and 3.46 OD450
[26]
  OD450: 2.23 OD450 and 2.36 OD450
[27]
  OD450: 3.25 OD450 and 3.32 OD450
[28]
  OD450: 0.315 OD450 and 0.326 OD450
[29]
  OD450: 0.419 OD450 and 0.346 OD450
[30]
  OD450: 3.02 OD450 and 3.16 OD450
[31]
  OD450: 0.752 OD450 and 0.746 OD450
[32]
  OD450: 1.31 OD450 and 1.37 OD450
Mouse CTLA-4-Fc (mouse)
  OD450: 0.303 OD450 and 0.314 OD450
[33]
  OD450: 3.03 OD450
[34]
  OD450: 0.26 OD450 and 0.272 OD450
[35]
  OD450: 2.67 OD450 and 2.88 OD450
[36]
  OD450: 2.24 OD450 and 2.54 OD450
[37]
  OD450: 3.19 OD450 and 3.57 OD450
[38]
  OD450: 0.184 OD450 and 0.176 OD450
[39]
  OD450: 0.183 OD450 and 0.167 OD450
[40]
  OD450: 0.192 OD450 and 0.176 OD450
[41]
  OD450: 0.198 OD450 and 0.176 OD450
[42]
  OD450: 0.187 OD450 and 0.18 OD450
